According to patent publication US6784337:

How the values were obtained:
Papain = Papain (UniProt P00784); experiment: cell-based or functional assay
trypsin = experiment: cell-based or functional assay

Sequence of UniProt P00784 (P00784 134-345 limits assumed): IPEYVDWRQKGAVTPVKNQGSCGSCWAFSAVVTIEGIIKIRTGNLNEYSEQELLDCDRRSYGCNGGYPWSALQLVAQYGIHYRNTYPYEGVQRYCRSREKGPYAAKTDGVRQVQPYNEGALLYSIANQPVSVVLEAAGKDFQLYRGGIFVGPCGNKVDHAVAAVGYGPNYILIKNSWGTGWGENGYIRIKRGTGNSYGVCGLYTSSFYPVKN

Substance | inhibition of papain activity (relative inhibition assay, substrate N-Cbz-Phe-Arg-7-amido-4-methylcoumarin) (Papain) [%] | inhibition of trypsin activity (relative inhibition assay, substrate N-Cbz-Phe-Arg-7-amido-4-methylcoumarin) (trypsin) [%]
Oc-IΔD86/PsMTa/CpTI fusion protein (products of the construct) (from UniProt P09229 39-140) | 95 | 95
Oc-IΔD86/go/CpTI fusion protein (from UniProt P09229 39-140) | 95 | 95
